Laboratory results: US20090158455A1, “COMPOSITIONS AND METHODS FOR MODULATING LYSINE PRODUCTION” (priority 2005, published 2009)

Experiments:
[1] = tested on: O=C(O)C1=N[C@H](C(=O)O)CCC1; assay: purified protein, by the assay type; details: other: forward assay
[2] = tested on: N[C@@H](CCC[C@H](N)C(=O)O)C(=O)O; assay: purified protein, by the assay type; details: other: reverse assay
N[C@@H](CCC(=O)O)C(=O)O [3] = assay: purified protein, by the assay type; details: other: forward assay
O=C(O)CCC(=O)C(=O)O = assay: purified protein, by the assay type; details: other: reverse assay
[4] = tested on: O=C(O)C1=N[C@H](C(=O)O)CCC1; assay: Quantitative forward and reverse assays of purified LL-DAP transaminases (Example III); type: biochemical, Desulfitobacterium hafniense DCB-2; details: other: forward assay
Description: (§1) This plasmid was transformed into E. coli BL21-CodonPlus®-RIPL for expression and purification of the recombinant protein.
(§2) For protein expression the E. coli strains were grown on LB at 37° C. to an OD600 nm of 0.5 and protein expression was then induced with 1 mM IPTG for 4 hr at 25° C. Cells were lysed by sonication in a solution of 50 mM sodium phosphate and 300 mM NaCl (pH 8.0). Metabolites in the extract were removed by buffer exchange using an Amicon Ultra 30,000 MWCO ultrafilter and sodium phosphate/NaCl buffer, and the concentrated soluble protein sample was used for measurement of enzyme activity as an initial assessment of enzyme function. When the recombinant protein was to be purified a larger cell culture was grown and lysed as described above, but the buffer exchange step was not carried out. […] The pure protein was then concentrated in an Amicon Ultra 30,000 MWCO ultrafilter, replacing the elution buffer with 100 mM HepesKOH, pH 7.6.
N[C@@H](CCC(=O)O)C(=O)O [5] = assay: as above; type: biochemical, Desulfitobacterium hafniense DCB-2; details: other: forward assay
Description: as §1, §2

Row | Substance | Km ([1]; pH 7.5, 30° C., apparent Km) [µM] | Km ([2]; pH 7.5, 30° C., apparent Km) [µM] | Km (N[C@@H](CCC(=O)O)C(=O)O [3]; pH 7.5, 30° C., apparent Km) [µM] | Km (O=C(O)CCC(=O)C(=O)O; pH 7.5, 30° C., apparent Km, pH 7.5, 30.0 °C) [µM] | Km [4] [µM] | Km (N[C@@H](CCC(=O)O)C(=O)O [5]) [µM] | Km [2] [µM] | Km (O=C(O)CCC(=O)C(=O)O) [µM] | Km [1] [µM] | Km (N[C@@H](CCC(=O)O)C(=O)O [3]) [µM]
1 | Chlamydia trachomatis LL-DAP aminotransferase CT390 (ct390), His-Tag fusion, SEQ ID NO: 9 (Chlamydia trachomatis D/UW-3/CX) | 200 | 20 | 1000 | 650 |  |  |  |  |  | 
2 | Desulfitobacterium hafniense LL-DAP transaminase Dhaf_3890 (Desulfitobacterium hafniense DCB-2) |  |  |  |  | 70 | 800 | 41 | 300 |  | 
3 | Methanothermobacter thermautotrophicus LL-DAP transaminase MTH52 (Methanothermobacter thermautotrophicus str. Delta H) |  |  |  |  |  |  | 30 |  | 75 | 3000
4 | Synechocystis sp. PCC 6803 LL-DAP transaminase sll0480 (Synechocystis sp. PCC 6803 substr. Kazusa) |  |  |  |  |  |  | 17 | 310 | 13 | 1500
